From patent US20200216522A1 (DENALI THERAPEUTICS, published 2020)
* marks the point of attachment. Biotin = O=C1N[C@H]2[C@H](CS[C@H]2CCCCC(=O)*)N1

Tests used:
Peptide_017 = target: T1, Peptide_017 (human); assay: peptide array
T1 peptide: DEGAPGKQAAAQPHT
Description: (§1) Chimeric IgG antibodies were diluted to a concentration of 5 μg/mL in 3% bovine serum albumin in Tris-buffered saline (10 mM Tris, pH 7.5, 150 mM NaCl) supplemented with 0.05% Tween®20 (3% BSA-TBST). Diluted antibodies were allowed to bind to peptides printed onto slides for 2 hours at room temperature as described in the PepStar™ user manual (JPT Technologies). Following extensive washing (5×5 minutes with TBST), slides were incubated with secondary antibodies goat anti-human IgG, Alexa Fluor 568 conjugate, 1 μg/mL in 3% BSA-TBST) for 1 hour at room temperature. After extensive washing, (5×5 minutes with TBST, then 5×5 minutes with ultrapure water), slides were dried overnight and imaged using an Opera Phenix™ system in the 568 nm channel. Images were aligned to peptide array definition files using Galviewer software obtained from JPT Technologies and ImageJ software with control human IgG serving as landmarks.
(§2) Full-length human Tau (encoded by the microtubule-associated protein Tau isoform 2 gene (MAPT), amino acid sequence NCBI Reference Sequence No. NP_005901.2, SEQ ID NO: 1, variant designation “2N4R”) was divided into 15 amino acid peptides, offset by 5 amino acids (overlapping by 10 amino acids). Peptides were synthesized and covalently attached to silica slides in triplicate with a spot size of 0.5 mm (obtained from JPT Technologies, Berlin, Germany). Antibodies muIgG were diluted to a concentration of 30 μg/mL in 3% bovine serum albumin in Tris-buffered saline (10 mM Tris, pH 7.5, 150 mM NaCl) supplemented with 0.05% Tween® 20 (3% BSA-TBST). Diluted antibodies were allowed to bind to peptides printed onto slides for 2 hours at room temperature as described in the Pepstar™ user manual (JPT Technologies). Following extensive washing (5×5 min TBST), slides were incubated with secondary antibodies (donkey anti-mouse IgG, Alexafluor 647 conjugate, 5 μg/mL in 3% BSA-TBST) for 1 hour at room temperature. After extensive washing, (5×5 minutes TBST, 5×5 minutes ultrapure water), slides were dried under a stream of nitrogen and imaged on the Opera Phenix in the 647 nm channel. Images were aligned to peptide array definition file using Galviewer software obtained from JPT Technologies and ImageJ software with control mouse IgG serving as landmarks.

Peptide_013 = target: T2, Peptide_013 (human); assay: peptide array
T2 peptide: SETSDAKSTPTAEDV
Description: as §1, §2

Peptide_035 = target: T3, Peptide_035 (human); assay: peptide array
T3 peptide: IPAKTPPAPKTPPSS
Description: as §1, §2

Peptide_034 = target: T4, Peptide_034 (human); assay: peptide array
T4 peptide: ANATRIPAKTPPAPK
Description: as §1, §2

Peptide_033 = target: T5, Peptide_033 (human); assay: peptide array
T5 peptide: GQKGQANATRIPAKT
Description: as §1, §2

Peptide_031 = target: T6, Peptide_031 (human); assay: peptide array
T6 peptide: IATPRGAAPPGQKGQ
Description: as §1, §2

Peptide_030 = target: T7, Peptide_030 (human); assay: peptide array
T7 peptide: DGKTKIATPRGAAPP
Description: as §1, §2

Peptide_026 = target: T8, Peptide_026 (human); assay: peptide array
T8 peptide: RMVSKSKDGTGSDDK
Description: as §1, §2

Peptide_038 = target: T9, Peptide_038 (human); assay: peptide array
T9 peptide: GEPPKSGDRSGYSSP
Description: as §1, §2

Peptide_052 = target: T10, Peptide_052 (human); assay: peptide array
T10 peptide: VKSKIGSTENLKHQP
Description: as §1, §2

Peptide_051 = target: T11, Peptide_051 (human); assay: peptide array
T11 peptide: PDLKNVKSKIGSTEN
Description: as §1, §2

Peptide_069 = target: T12, Peptide_069 (human); assay: peptide array
T12 peptide: SEKLDFKDRVQSKIG
Description: as §1, §2

Peptide_081 = target: T13, Peptide_081 (human); assay: peptide array
T13 peptide: GDTSPRHLSNVSSTG
Description: as §1, §2

Peptide_076 = target: T14, Peptide_076 (human); assay: peptide array
T14 peptide: LTFRENAKAKTDHGA
Description: as §1, §2

Peptide_075 = target: T15, Peptide_075 (human); assay: peptide array
T15 peptide: IETHKLTFRENAKAK
Description: as §1, §2

Peptide_083 = target: T16, Peptide_083 (human); assay: peptide array
T16 peptide: VSSTGSIDMVDSPQL
Description: as §1, §2

[1] = target: T17, Tau 251-270 peptide, unphosphorylated (human, N-terminal biotin; C-terminal amide); assay: ELISA on biotinylated peptide
T17 peptide: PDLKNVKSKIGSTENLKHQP
Description: (§3) Peptides corresponding to original binding sites on the microarray were synthesized and included all permutations of phospho-serine epitopes. Peptides were synthesized with a biotinylated N-terminus and C-terminal amide. Peptides were purified and confirmed by mass spectrometry. Peptides were then bound to streptavidin-coated plates in half serial dilutions from 250 ng/well of each peptide. Antibody binding was tested at 1 μg/mL in 5% BSA TBST, followed by washing and detection with goat anti-human HRP (as described above in the “Chimeric IgG ELISA” section).

[2] = target: T18, Tau 346-360 peptide, unphosphorylated (human, SMILES …); assay: ELISA on biotinylated peptide
T18 peptide: Biotin-FKDRVQSKIGSLDNI-NH2
Description: as §3

[3] = target: T19, full-length human Tau (Tau441; 2N4R), recombinant (human, UniProt P10636 1-758); assay: Octet binning on biotin-r-Tau; competitor 1A5
T19 construct: made in E. coli, His6-Smt3 tag removed; biotinylated through amines for Octet and phage work; also called r-Tau; recombinant Tau
T19 sequence (P10636 other isoform, or with tags, fused parts or gaps limits assumed): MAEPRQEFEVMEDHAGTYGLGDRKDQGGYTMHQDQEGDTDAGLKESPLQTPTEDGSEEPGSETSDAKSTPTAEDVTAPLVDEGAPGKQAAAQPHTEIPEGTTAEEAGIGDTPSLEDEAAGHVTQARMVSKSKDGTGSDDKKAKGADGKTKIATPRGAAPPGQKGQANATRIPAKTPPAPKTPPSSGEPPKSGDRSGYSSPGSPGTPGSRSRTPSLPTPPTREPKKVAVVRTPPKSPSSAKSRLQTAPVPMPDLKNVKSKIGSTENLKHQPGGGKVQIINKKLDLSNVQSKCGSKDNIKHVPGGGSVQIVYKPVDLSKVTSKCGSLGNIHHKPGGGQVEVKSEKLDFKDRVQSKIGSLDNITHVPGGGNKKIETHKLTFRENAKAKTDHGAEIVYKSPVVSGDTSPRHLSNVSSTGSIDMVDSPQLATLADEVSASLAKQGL
Description: (§4) Epitope binning assays were performed using a FortéBio® Octet® RED384 instrument using FortéBio® Streptavidin biosensors. Biotinylated recombinant Tau was diluted to a concentration of 2 μg/mL in kinetic buffer (obtained from FortéBio®) and captured onto individual biosensors for 1 minute. A baseline was then established for 1 minute in kinetic buffer. The loaded biosensors were dipped into 10 μg/mL of the first chimeric IgG antibody until signal saturation, followed by dipping into 1 μg/mL of a second antibody. The binding for the second antibody was normalized to its total binding in the absence of the first antibody.

[4] = target: T19, full-length human Tau (Tau441; 2N4R), …; assay: Octet binning on biotin-r-Tau; competitor 1C7
Description: as §4

[5] = target: T19, full-length human Tau (Tau441; 2N4R), …; assay: Octet binning on biotin-r-Tau; competitor 1G7
Description: as §4

[6] = target: T19, full-length human Tau (Tau441; 2N4R), …; assay: Octet binning on biotin-r-Tau; competitor 1D10
Description: as §4

[7] = target: T19, full-length human Tau (Tau441; 2N4R), …; assay: Octet binning on biotin-r-Tau; row antibody Ab107 (anti-BACE1 control)
Description: as §4

B1: chimeric IgG clone 1D10 (antibody, V domains shown)
VH: EVQLQQSGAELVRPGASVKLSCTASGFNIKDSLMHWMKQRPEQGLEWIGWIDPEDGETKYAPKFQDKATLTADTSSNAAYLQLSSLTSEDTAIYYCVRGDWDGGYWGQGTTLTVSS
VL: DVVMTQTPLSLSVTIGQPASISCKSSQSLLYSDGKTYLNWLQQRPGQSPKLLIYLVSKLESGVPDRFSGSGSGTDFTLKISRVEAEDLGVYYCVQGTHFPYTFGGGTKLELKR
notes: mouse-human chimeric IgG from HEK293
no binding (tested: 5 ug/mL): binding result (Peptide_017) | binding result (Peptide_013) | binding result (Peptide_035) | binding result (Peptide_034) | binding result (Peptide_033) | binding result (Peptide_031) | binding result (Peptide_030) | binding result (Peptide_026) | binding result (Peptide_038) | binding result (Peptide_069) | binding result (Peptide_081) | binding result (Peptide_076) | binding result (Peptide_075) | binding result (Peptide_083)
binds: binding result (Peptide_052) | binding result (Peptide_051) | binding result [1] | binding result [2]
0.12: normalized binding of second antibody [5]
-0.05: normalized binding of second antibody [6]
0.88: normalized binding of second antibody [4]
-0.07: normalized binding of second antibody [3]
1: normalized binding of second antibody [7]
